Source: patent publication US10906977B2, “Enhancing the therapeutic activity of immune checkpoint inhibitor” (Maine Medical Center Research Institute, priority 2016, dated 2021)

Tests used:
integrin α10β1 [1] = target: T1, integrin α10β1 (Homo sapiens, UniProt O75578+P05556); test: Solid-phase integrin binding to synthetic HU177 epitope (PGF peptide); conditions: peptide immobilized 100 ug/ml; FIG. 23F
T1 construct: purchased R&D Systems
Method: (§1) Plates were coated with 25 μg/ml of native or denatured (boiled 15 minutes) collagen. Collagen epitope peptide PGF and Cont-peptides were immobilized at 100 ug/ml. Integrins (0-2.0 μg/ml) were diluted in binding buffer containing 20 mM Tris, 15 mM NaCl, 1 mM MgCl2, 0.2 mM MnCl2, 0.5% BSA pH 7.4 as described (13). Integrins were allowed to bind for 1 hr and plates washed and incubated with anti-integrin antibodies (1:100 dilution) for 1 hr. Plates were washed and incubated with HRP-labeled secondary antibodies (1:5000 dilution). In a second assay, integrins (0.5 μg/ml) were coated in binding buffer and plates were washed, blocked as before and denatured (boiled 15 minutes) collagen was added (0-10.0 μg/ml). Denatured collagen was detected with anti-collagen antibody (1:1000). For integrin blocking ELISAs, wells were coated with denatured collagen and pre-treated (0.1 μg/ml) with anti-HU177 or control antibody. Following washing, wells were incubated with integrins (2.0 μg/ml) and binding was detected as described. Assays were carried out at least 3 times.

integrin αvβ3 [2] = target: T2, integrin αvβ3 (Homo sapiens, UniProt P05106+P06756); test: as above; conditions: peptide immobilized 100 ug/ml; FIG. 23F
T2 construct: purchased R&D Systems (Minneapolis, Minn.)
Method: as §1

integrin α2β1 [3] = target: T3, integrin α2β1 (Homo sapiens, UniProt P05556+P17301); test: as above; conditions: peptide immobilized 100 ug/ml; FIG. 23F
T3 construct: purchased R&D Systems
Method: as §1

integrin α10β1 [4] = target: T1, integrin α10β1; test: Solid-phase integrin binding to denatured collagen
Method: as §1

TGF-β = test: Serum cytokines in B16F10 tumor bearing mice injected with cPG peptide (ELISA); assay type: in vivo, C57BL/6 mice; conditions: injected 3× per week; serum after 14 days; FIG. 26A
Method: FIG. 26A-FIG. 26C is a series of bar charts showing that the injection of a peptide (cPG) containing the HU177 collagen epitope induces expression of the immune suppressive growth factor TGF-β in mouse circulation. C57BL/6 mice were injected subcutaneously with B16F10 melanoma cells (0.5×10^6) and tumors were allowed to form. Mice were next injected 3× per week with […] per mouse of cPG peptide. Serum was […] after 14 days. Serum was diluted in assay buffer and the relative levels of cytokines were examined by ELISA. FIG. 26A is a bar graph wherein data bars represent relative levels of TGF-β as determined by ELISA from control (DMSO) treated mouse and two different cPG peptide treated mice. FIG. 26B is a bar graph wherein data bars represent relative levels of IL-4 as determined by ELISA from control (DMSO) treated mouse and two different cPG peptide treated mice. FIG. 26C is a bar graph wherein data bars represent relative levels of IL-1β as determined by ELISA from control (DMSO) treated mouse and two different cPG peptide treated mice.
C57BL/6 mice were injected subcutaneously with B16F10 melanoma cells (0.5×10^6) and tumors were allowed to form. […] FIG. 26A is a bar graph wherein data bars represent relative levels of TGF-β as determined by ELISA from control (DMSO) treated mouse and two different cPG peptide treated mice. […]

PDL-1 [5] = test: PDL-1 protein in M21 melanoma cells on immobilized XL313 epitope (Western blot); assay type: cell-based, human; conditions: 15 minute incubation; vs uncoated wells; FIG. 15
Method: Integrin αvβ3 expressing melanoma cells (M21) were seeded on control uncoated wells or wells immobilized with the XL313 cryptic collagen epitope (RGDKGE (SEQ ID NO: 1)). Following a 15 minute incubation cell lysates were prepared. The relative levels of PDL-1 or loading control β-actin were assessed by Western blot.
Integrin αvβ3 expressing melanoma cells (M21) were seeded onto control uncoated wells or wells immobilized with the XL313 cryptic collagen epitope (RGDKGE (SEQ ID NO: 1)) (FIG. 15). Following an incubation period, cell lysates were prepared and relative levels of PDL-1 were assessed.

PDL-1 [6] = test: PDL-1 protein in cells attached to denatured collagen-IV (Western blot); assay type: cell-based; conditions: M21, CCL-49, HUVEC; vs native collagen-IV; FIG. 14
Method: FIG. 14A and FIG. 14B are blots of integrin αvβ3 expressing melanoma cells (M21 and […]) and FIG. 14C is a blot depicting that endothelial cells (HUVEC) were allowed to attach to well coated with either a non-αvβ3 binding ligand (native collagen-IV) or an αvβ3 binding ligand (denatured collagen-IV). Whole cell lysates were prepared and the relative levels of PDL-1 or loading control β-actin were assessed by Western blot.
Integrin αvβ3 expressing melanoma cells M21 (FIG. 14A) and CCL-49 (FIG. 14B) and endothelial cells (HUVEC) (FIG. 14C) were attached to wells coated with either a non-αvβ3 binding ligand (native collagen-IV) or an αvβ3 binding ligand (denatured collagen-IV). Whole cell lysates were prepared and the relative levels of PDL-1 or β-actin loading control were assessed.

SKOV-3 cells [7] = test: Cell adhesion on native or denatured collagen; assay type: cell-based, human; conditions: FIG. 20A
Method: (§2) The wells of non-tissue culture forty-eight well cluster plates were coated for 12 hrs at 4° C. with 5 μg/ml of native or denatured (boiled 15 minutes) collagen prepared as described above. SKOV-3 and fibroblasts were suspended in adhesion buffer containing RPMI 1640, 1 mM MgCl2, 0.2 mM MnCl2 and 0.5% BSA (13) and 1×10^5 cells were added in the presence or absence of anti-HU177 or control antibodies (100 μg/ml). Cells were allowed to attach for 25 minutes. Non-attached cells were removed by washing and attached cells stained with crystal violet as described (13). Wells were washed and the cell-associated crystal violet was eluted with 100 ul per well of 10% acetic acid. Cell adhesion was quantified by measuring the optical density of the eluted crystal violet as described (15). Assays were completed at least 3×.

fibroblasts [8] = test: Cell adhesion on native or denatured collagen; assay type: cell-based, human; conditions: FIG. 20B
Method: as §2

SKOV-3 cells [9] = test: Transwell cell migration on native or denatured collagen; assay type: cell-based, human; conditions: FIG. 20C
Method: (§3) Transwell membranes (8.0 um pore size) were coated with 5 μg/ml of native or denatured collagen for 12 hrs at […] as described previously (13). Migration buffer containing RPMI 1640, 1 mM MgCl2, 0.2 mM MnCl2 and 0.5% BSA in the presence or absence of 5× concentrated serum free SKOV-3 CM or 20 ng/ml FGF-2 was placed in the lower chambers. SKOV-3 or fibroblasts (1×105) were resuspended in migration buffer containing RPMI 1640, 1 mM MgCl2, 0.2 mM MnCl2 and 0.5% BSA in the presence or absence of antibodies directed to the HU177 epitope, or α10β1, (10 μg/ml) or 100 uM of the MEK inhibitor ([…]). Cells were added to the top chamber and allowed to migrate from 2 to 4 hrs. Cells remaining on the top of the membranes were removed and cells that had migrated to the underside of the membrane were quantified by direct cell counts of crystal violet stained cells or by measuring the optical density of eluted cell-associated crystal violet dye as previously described (15). Assays were completed at least 3×.

fibroblasts [10] = test: as above; assay type: cell-based, human; conditions: FIG. 20D
Method: as §3

integrin αvβ3 [11] = target: T2, integrin αvβ3; test: Solid-phase integrin binding to denatured collagen; conditions: FIG. 23A
Method: as §1

integrin α2β1 [12] = target: T3, integrin α2β1; test: Solid-phase integrin binding to denatured collagen; conditions: FIG. 23A
Method: as §1

integrin α1β1 = target: T4, integrin α1β1 (Homo sapiens, UniProt P05556+P56199); test: Solid-phase integrin binding to denatured collagen; conditions: FIG. 23A
T4 construct: purchased R&D Systems (Minneapolis, Minn.)
Method: as §1

T1 sequence (O75578 23-1122 limits assumed): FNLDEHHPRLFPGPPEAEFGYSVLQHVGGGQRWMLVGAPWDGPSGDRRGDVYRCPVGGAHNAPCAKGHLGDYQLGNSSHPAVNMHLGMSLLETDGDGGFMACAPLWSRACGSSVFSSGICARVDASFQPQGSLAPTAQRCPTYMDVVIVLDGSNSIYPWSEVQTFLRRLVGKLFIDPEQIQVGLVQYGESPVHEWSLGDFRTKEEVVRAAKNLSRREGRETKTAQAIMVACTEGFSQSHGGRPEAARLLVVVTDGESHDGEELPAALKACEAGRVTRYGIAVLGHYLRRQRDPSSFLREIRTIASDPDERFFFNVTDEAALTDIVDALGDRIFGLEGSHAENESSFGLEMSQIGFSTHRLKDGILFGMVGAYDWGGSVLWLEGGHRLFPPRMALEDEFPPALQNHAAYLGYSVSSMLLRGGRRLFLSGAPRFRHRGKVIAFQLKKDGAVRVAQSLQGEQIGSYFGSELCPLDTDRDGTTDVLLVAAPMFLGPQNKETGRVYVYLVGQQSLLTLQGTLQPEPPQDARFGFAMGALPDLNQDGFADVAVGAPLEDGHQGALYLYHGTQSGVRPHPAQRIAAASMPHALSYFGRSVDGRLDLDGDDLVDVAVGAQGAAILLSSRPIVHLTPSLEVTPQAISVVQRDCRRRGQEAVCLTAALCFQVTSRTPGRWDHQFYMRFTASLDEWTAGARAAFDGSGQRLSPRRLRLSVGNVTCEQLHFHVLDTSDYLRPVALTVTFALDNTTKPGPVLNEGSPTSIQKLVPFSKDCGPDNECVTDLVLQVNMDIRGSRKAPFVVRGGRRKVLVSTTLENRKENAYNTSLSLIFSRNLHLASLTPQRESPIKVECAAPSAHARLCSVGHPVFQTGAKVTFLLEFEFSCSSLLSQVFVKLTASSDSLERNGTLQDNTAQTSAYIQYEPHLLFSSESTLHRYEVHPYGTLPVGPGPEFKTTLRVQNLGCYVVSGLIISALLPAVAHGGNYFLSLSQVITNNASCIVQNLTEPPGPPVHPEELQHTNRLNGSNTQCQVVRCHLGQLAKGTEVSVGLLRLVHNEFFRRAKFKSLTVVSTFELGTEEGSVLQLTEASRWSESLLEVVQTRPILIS
T1 sequence (P05556 21-728 limits assumed): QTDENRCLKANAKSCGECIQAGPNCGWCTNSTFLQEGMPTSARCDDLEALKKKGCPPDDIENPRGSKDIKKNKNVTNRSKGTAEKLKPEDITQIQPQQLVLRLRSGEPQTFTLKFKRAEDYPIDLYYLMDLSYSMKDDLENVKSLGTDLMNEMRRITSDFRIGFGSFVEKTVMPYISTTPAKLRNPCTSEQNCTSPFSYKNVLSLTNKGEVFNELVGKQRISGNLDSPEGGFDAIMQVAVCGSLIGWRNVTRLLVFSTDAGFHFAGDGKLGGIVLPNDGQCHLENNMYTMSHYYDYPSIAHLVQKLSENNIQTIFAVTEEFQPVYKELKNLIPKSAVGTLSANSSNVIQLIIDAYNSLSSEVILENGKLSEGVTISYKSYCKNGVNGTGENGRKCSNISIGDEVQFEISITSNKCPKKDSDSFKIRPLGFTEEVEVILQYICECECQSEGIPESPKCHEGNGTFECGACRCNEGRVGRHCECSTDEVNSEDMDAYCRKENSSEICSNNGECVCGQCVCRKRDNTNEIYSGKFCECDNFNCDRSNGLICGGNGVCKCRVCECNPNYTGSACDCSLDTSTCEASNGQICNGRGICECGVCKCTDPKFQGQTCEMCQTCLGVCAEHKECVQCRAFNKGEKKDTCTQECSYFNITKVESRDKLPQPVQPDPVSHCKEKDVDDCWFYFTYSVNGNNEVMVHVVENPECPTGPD
T3 sequence (P17301 30-1132 limits assumed): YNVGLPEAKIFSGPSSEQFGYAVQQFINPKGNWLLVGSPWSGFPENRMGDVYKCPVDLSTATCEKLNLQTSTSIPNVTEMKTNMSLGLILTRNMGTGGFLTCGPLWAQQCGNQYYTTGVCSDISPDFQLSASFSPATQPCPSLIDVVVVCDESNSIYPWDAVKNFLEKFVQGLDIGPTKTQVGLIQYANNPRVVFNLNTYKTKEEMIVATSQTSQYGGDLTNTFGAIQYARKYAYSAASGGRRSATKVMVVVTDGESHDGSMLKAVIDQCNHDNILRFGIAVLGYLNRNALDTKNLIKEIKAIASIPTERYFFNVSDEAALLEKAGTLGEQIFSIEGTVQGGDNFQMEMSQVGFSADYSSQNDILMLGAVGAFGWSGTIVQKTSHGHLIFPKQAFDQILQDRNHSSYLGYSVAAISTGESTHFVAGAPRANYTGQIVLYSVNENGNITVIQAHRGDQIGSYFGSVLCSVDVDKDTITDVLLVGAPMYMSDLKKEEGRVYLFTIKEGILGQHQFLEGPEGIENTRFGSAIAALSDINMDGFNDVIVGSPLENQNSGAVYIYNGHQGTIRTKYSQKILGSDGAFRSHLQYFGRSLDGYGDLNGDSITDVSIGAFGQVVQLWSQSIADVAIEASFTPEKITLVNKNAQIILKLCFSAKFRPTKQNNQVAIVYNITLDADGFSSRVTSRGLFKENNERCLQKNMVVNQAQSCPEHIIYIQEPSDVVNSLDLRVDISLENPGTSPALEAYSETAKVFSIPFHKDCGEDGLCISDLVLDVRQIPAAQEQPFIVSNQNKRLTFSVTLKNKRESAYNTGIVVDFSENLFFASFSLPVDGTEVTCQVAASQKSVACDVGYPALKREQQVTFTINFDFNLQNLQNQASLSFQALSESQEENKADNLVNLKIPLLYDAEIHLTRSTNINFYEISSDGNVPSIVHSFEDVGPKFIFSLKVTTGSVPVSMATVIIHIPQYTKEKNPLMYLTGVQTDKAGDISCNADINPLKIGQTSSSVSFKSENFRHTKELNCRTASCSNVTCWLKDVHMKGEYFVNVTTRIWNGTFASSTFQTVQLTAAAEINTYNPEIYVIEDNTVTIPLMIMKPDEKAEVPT
T3 sequence (P05556 21-728 limits assumed): as the sequence (P05556 21-728 limits assumed) above
T2 sequence (P06756 31-992 limits assumed): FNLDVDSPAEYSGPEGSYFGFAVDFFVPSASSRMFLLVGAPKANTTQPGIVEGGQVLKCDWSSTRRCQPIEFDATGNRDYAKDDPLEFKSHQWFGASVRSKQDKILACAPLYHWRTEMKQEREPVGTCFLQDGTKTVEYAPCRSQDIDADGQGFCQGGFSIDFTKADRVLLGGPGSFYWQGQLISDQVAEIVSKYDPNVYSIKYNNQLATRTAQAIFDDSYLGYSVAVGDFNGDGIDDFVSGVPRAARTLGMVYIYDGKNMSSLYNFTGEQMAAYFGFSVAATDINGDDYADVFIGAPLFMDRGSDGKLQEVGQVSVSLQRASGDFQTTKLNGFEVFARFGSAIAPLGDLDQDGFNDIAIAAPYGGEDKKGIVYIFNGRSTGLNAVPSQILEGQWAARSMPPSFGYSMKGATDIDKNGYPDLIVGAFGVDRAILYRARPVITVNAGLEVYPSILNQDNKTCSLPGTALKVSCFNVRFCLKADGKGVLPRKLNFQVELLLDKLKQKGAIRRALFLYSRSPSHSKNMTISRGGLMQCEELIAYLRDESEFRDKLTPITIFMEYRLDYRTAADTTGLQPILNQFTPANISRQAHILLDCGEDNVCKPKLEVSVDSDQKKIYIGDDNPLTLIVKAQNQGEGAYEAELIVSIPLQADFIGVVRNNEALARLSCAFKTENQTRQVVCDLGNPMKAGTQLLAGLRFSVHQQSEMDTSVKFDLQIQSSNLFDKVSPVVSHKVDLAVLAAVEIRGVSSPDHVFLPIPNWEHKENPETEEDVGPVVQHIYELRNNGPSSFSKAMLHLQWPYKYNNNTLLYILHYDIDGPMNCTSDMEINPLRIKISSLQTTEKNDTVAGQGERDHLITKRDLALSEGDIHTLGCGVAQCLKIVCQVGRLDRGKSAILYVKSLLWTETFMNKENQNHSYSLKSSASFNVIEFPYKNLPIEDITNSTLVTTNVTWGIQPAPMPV
T2 sequence (P05106 27-718 limits assumed): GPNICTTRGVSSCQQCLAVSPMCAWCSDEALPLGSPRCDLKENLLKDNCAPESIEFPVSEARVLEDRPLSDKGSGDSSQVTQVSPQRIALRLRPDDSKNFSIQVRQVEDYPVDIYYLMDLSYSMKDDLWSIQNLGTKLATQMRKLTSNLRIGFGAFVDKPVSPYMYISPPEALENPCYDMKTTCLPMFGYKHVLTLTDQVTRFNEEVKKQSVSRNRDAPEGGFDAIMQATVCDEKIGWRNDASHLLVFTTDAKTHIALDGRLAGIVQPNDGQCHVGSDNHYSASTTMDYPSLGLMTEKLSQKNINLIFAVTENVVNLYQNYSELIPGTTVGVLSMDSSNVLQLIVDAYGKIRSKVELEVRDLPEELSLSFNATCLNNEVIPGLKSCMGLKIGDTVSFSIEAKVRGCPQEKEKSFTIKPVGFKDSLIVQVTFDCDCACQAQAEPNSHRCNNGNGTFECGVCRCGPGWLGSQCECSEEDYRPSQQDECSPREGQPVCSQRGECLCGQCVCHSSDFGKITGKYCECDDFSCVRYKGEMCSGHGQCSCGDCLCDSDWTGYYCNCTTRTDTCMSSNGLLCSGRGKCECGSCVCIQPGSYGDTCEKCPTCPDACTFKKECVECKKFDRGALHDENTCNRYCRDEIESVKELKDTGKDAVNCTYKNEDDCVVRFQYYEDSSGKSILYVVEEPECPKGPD

With CPGFPGFC [PGF peptide] the “binding of α10β1 to the synthetic HU177 epitope, relative to α2β1” value (integrin α10β1 [1]) was 4 fold, the “direct binding of αvβ3 to the synthetic HU177 epitope” value (integrin αvβ3 [2]) was “failed to bind” and the “direct binding of α2β1 to the synthetic HU177 epitope” value (integrin α2β1 [3]) was “bound”. The “competition of binding of α10β1 to denatured collagen” value (integrin α10β1 [4]; soluble peptide, FIG. 23G) was “approximately 60%” and the “expression of TGF-β in mouse serum” value (TGF-β) was “induce the expression”.

With “RGDKGE (immobilized on wells) [XL313 epitope]” the “levels of PDL-1 protein in M21 melanoma cells following binding” value (PDL-1 [5]) was “enhanced levels of PDL-1 protein”.

“denatured collagen-IV: αvβ3 binding ECM ligand coated on wells” was tested, and the “levels of PDL-1 protein in melanoma and endothelial cells following binding” value (PDL-1 [6]) was “enhanced levels of PDL-1 protein”.

For “denatured collagen: collagen type-I denatured by boiling the solution for 15 minutes”, the “enhancement of SKOV-3 adhesion as compared to native collagen” value (SKOV-3 cells [7]) was 38%, the “enhancement of fibroblast adhesion as compared to native collagen” value (fibroblasts [8]) was 29% and the “enhancement of SKOV-3 migration as compared to native collagen” value (SKOV-3 cells [9]) was 34%. The “enhancement of fibroblast migration as compared to native collagen” value (fibroblasts [10]) was 19%, the “binding of denatured collagen and integrin α10β1” value (integrin α10β1 [4]; FIG. 23A, 23B) was “dose dependently bound” and the “binding of integrin αvβ3 to denatured collagen” value (integrin αvβ3 [11]) was “dose dependently bound”. The “binding of integrin α2β1 to denatured collagen” value (integrin α2β1 [12]) was “dose dependently bound” and the “binding of integrin α1β1 to denatured collagen” value (integrin α1β1) was “minimal interactions”.
